First the molecules themselves.
B1: mouse secretagogin (natural protein, UniProt Q91WD9 1-276, looked up)
chain: MDNARRKTPARLDAACFWQIWQRFDKEEKGYIRETELDAFFDHLLAKSGTEDTLMEENVQKVKEQLMTSHNVSKEGRILMKELASMFLSEDENFLLFFRLETPLDNSVEFMQIWRKYDADSSGFISAAELCNFLRDLFLHHKKNISEAELEEYTSTMMKIFDKNKDGRLDLNDLARILALQENFLLQFKMDASSTEERKRDFEKIFAHYDVSKTGALEGPEVDGFVKDMMELVQPSISGVDLDKFREILLRHCDVNKDGKIQKSELALCLGLKINP
notes: mouse secretagogin, the three-domain protein (domains A, B, C); construct in Dataset S1; also called mSCGN; SCGN; source: recombinant, produced and purified; E. coli BL21(DE3) named for the pull-down constructs
B4: Habc domain of mouse syntaxin-4 (domain or fragment, UniProt P70452 32-170, looked up)
chain: ARLGSPDDEFFQKVQTIRQTMAKLESKVRELEKQQVTILATPLPEESMKQGLQNLREEIKQLGREVRAQLKAIEPQKEEADENYNSVNTRMKKTQHGVLSQQFVELINKCNSMQSEYREKNVERIRRQLKITNAGMVSD
notes: mouse syntaxin-4, globular Habc domain; limits in Dataset S1; The His6 tag is told for the pull-down baits; a Habc with the N-peptide is m36; also called Habc module of syntaxin-4; syntaxin-4-derived Habc module; source: recombinant, produced and purified; E. coli BL21(DE3) named for the pull-down constructs

Test [1] addresses B4. Description: ITC; in the presence of Ca2+. Particulars: both partners purified. (In general: In ITC the heat of successive injections is recorded.)
Test [2] addresses T1, C-terminal SNARE domain of mouse SNAP-25 (mouse, UniProt P60879 140-206).
T1 construct: mouse SNAP-25, C-terminal SNARE domain (helix), identical in SNAP25-1 and SNAP25-2; limits in Dataset S1; The pull-down fragments are said to derive from isoform-2; also called SNAP-25c; SNAP-25C; source: recombinant; E. coli BL21(DE3) named for the pull-down constructs
Nature of the test: ITC; in the presence of Ca2+. Particulars: both partners purified.

For test [3], the target named is B1. Description: ITC; in the presence of Ca2+. The conditions noted are these: both partners purified.
Test [4] deals with B1. Description: ITC; GFP-fusion peptides of the syntaxin-4 Hb helix; the sentence names no method, the values are said to stand in SI Fig. S3E and SI Table S1 (ITC data). Particulars: both partners purified.
For test [5], the target named is T2, human secretagogin (human, UniProt O76038 1-276).
T2 construct: human secretagogin; construct in Dataset S1; Construct limits are in Dataset S1; also called recombinant human secretagogin; source: recombinant; coexpressed and copurified with the GFP fusion, or purified
T2 sequence (looked up): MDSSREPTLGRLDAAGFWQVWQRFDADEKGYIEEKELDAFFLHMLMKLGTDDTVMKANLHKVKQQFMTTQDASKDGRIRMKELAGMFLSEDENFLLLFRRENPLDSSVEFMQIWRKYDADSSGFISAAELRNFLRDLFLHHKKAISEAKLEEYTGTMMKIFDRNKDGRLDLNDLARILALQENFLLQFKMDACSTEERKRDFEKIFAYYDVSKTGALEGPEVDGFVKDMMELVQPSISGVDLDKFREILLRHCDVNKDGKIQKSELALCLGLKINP
Description: co-expression and co-purification + SEC; GFP-peptide fusion coexpressed with human secretagogin; in the presence of Ca2+. Particulars: partners not purified.

No end group written: not given here.

T1 sequence (P60879 140-206): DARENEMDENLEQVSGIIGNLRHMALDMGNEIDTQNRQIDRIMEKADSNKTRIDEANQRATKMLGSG

As for B1, the “stoichiometry N” value in test [1] and in test [2] was 1 each time.

B2: helix-a of the Habc domain of mouse syntaxin-4 (domain or fragment, UniProt P70452 32-80, looked up)
chain: ARLGSPDDEFFQKVQTIRQTMAKLESKVRELEKQQVTILATPLPEESMK
notes: limits in Dataset S1; Used as bait in the pull-down; source: recombinant; E. coli BL21(DE3) named for the pull-down constructs
Regarding B2, in test [3], the Kd was roughly 7000 nM.

B3: GFPmSTX4Hb7 (peptide)
chain: TPLPEESMKQGLQNLREEIKQLGREVRAQLKAIEPQKE
modifications: also: fused as C-terminal tag to GFP
notes: mouse syntaxin-4, stretch of the Hb helix, C-terminal tag on GFP; source: recombinant GFP fusion; not shown: GFP, N-terminal, kept
Regarding B3, the affinity in test [4], expressed as Kd, was 275 nM. For B4, the Kd in test [3] is roughly 14000 nM.

B5: helix-b of the Habc domain of mouse syntaxin-4 (domain or fragment, UniProt P70452 72-109, looked up)
chain: TPLPEESMKQGLQNLREEIKQLGREVRAQLKAIEPQKE
notes: limits in Dataset S1; Used as bait in the pull-down; also called Hb; syntaxin-4 Hb; source: recombinant; E. coli BL21(DE3) named for the pull-down constructs
For B5, in test [3], the Kd is roughly 209 nM.

B6: mouse SNAP-25 peptide 155-179 (peptide)
chain: GIIGNLRHMALDMGNEIDTQNRQID
notes: mouse SNAP-25, stretch of the C-terminal helix; Tags of the deletion constructs are in Dataset S1; also called mSNAP-25^14−33; SNAP-25^14–33; source: recombinant deletion construct of SNAP-25c
For the molecule B6, the Kd in test [3] is roughly 46.6 nM.

B7: GFPmSTX4Hb10 (peptide)
chain: GLQNLREEIKQLGREVRAQLKAIEPQKE
modifications: also: fused as C-terminal tag to GFP
notes: mouse syntaxin-4, stretch of the Hb helix, C-terminal tag on GFP; A linker stands between GFP and the peptide; also called GFP-syntaxin-4-peptide; chimeric GFP-syntaxin-4 (STX4)-derived peptide; source: recombinant GFP fusion; complex with secretagogin isolated by preparative SEC; not shown: GFP, N-terminal, kept
B7 had a Kd in test [4] of 826 nM.

B8: GFPmSTX4Hb9 (peptide)
chain: ESMKQGLQNLREEIKQLGREVRAQLKAIEPQKE
modifications: also: fused as C-terminal tag to GFP
notes: as for B3
With B8, in test [4], the Kd is 541 nM.

B9: GFP carrying the SNAP-25-derived peptide (AA155-179) at its C-terminus (peptide)
chain: GIIGNLRHMALDMGNEIDTQNRQID
notes: SNAP-25 stretch 155-179 (mouse and human identical), attached to the C-terminus of GFP; GFP serves as crystallization chaperon; also called GFP-SNAP-25c chimera; GFP-linked SNAP-25-peptide; source: coexpressed and copurified with secretagogin; not shown: GFP, N-terminal, kept
Take B9: the binding result in test [5] is listed as “binds”.

What is called stoichiometry N is a count of units in the complex or per binding partner. For orientation: Kd means the free concentration of one partner at which half of the binding sites on the other are occupied at equilibrium, for simple one-to-one binding.

For the origin of these results see paper PMC11032447, “A hydrophobic groove in secretagogin allows for alternate interactions with SNAP-25 and syntaxin-4 in endocrine tissues” (Proceedings of the National Academy of Sciences of the …, 2024).
